Source: patent US20250333486A1, “Anti-HSP90 alpha antibody and uses thereof” (NATIONAL HEALTH RESEARCH INSTITUTES, priority 2021, published 2025)

B1: Clone-2: mouse anti-HSP90α monoclonal antibody, IgG2b κ; VH SEQ ID NO: 2, VL SEQ ID NO: 7 (antibody, V domains shown)
VH: EVQVVESGGGLVQPKGSLKLSCAASGFTFKTYAMNWVRQAPGKGLEWVARIRSKSRNYATYYADSVKDRFTISRDDSQFMFYLQMNNLKTEDTAMYYCVVGGSGFDYWGQGTTLTVSS
VL: DVLMTQTPLSLPVSLGDQASISCRSSQSIVHSNGNTYLEWYLQKPGQSPKLLIYKVGVPDRFSGSGSGTDFTLSISRVEAGDLGVYYCFQGSHVPWTFGGGTKLEIK
modifications: Heavy chain variable region; Light chain variable region
B2: Clone-2-chimera: recombinant IgG1 antibody: Clone-2 VH and VL with human IgG constant domains (antibody, V domains shown)
VH: EVQVVESGGGLVQPKGSLKLSCAASGFTFKTYAMNWVRQAPGKGLEWVARIRSKSRNYATYYADSVKDRFTISRDDSQFMFYLQMNNLKTEDTAMYYCVVGGSGFDYWGQGTTLTVSS
VL: DVLMTQTPLSLPVSLGDQASISCRSSQSIVHSNGNTYLEWYLQKPGQSPKLLIYKVSNRFSGVPDRFSGSGSGTDFTLSISRVEAGDLGVYYCFQGSHVPWTFGGGTKLEIK

Legend:
rHSP90α = molecular target: T1, rHSP90α (Homo sapiens, UniProt P07900); experiment: ELISA for HSP90α-binding activities; details: culture supernatants of six hybridoma clones
T1 construct: recombinant 732-amino acid (a.a.) full-length human HSP90α (rHSP90α; PeproTech Co., Cranbury, NJ, USA); purchased PeproTech Co., Cranbury, NJ, USA
Protocol: For assaying the HSP90α-binding activities of the prepared antibodies, 96-well plates were coated with 12.5 ng/ml of rHSP90α in the capture buffer (BioLegend, San Diego, CA, USA) by overnight incubation at 4° C. The coated plates were washed twice with PBST and then blocked with PBST plus 3% bovine serum albumin (BSA). The prepared antibodies were applied and incubated 2 h at room temperature. After three washes with PBST, horseradish peroxidase-conjugated secondary antibody was added and incubated at 37° C. for another 1 h. After three washes, 0.3 mg/ml of 3,3′,5,5′-tetramethylbenzidine in 0.015% H2O2 was added into each well and incubated in the dark at room temperature for 10 min. The reactions were stopped by the addition of 0.5 M H2SO4, and OD450 values were measured by an Infinite M200 microplate reader (TECAN, Männedorf, Switzerland). Additionally, the immunoglobulin (IgG) isotype characterization of anti-HSP90α antibodies was performed by using the Mouse Ig Isotyping ELISA Ready-Set-Go!™ Kit (eBioscience™, Thermo Fisher Scientific, Waltham, MA, USA). The ELISA protocol was also used to assay the secreted HSP90α levels of mouse serum samples as described previously. See Chen J S, Hsu Y M, Chen C C, Chen L L, Lee C C, Huang T S. Secreted heat shock protein 90α induces colorectal cancer cell invasion through CD91/LRP-1 and NF-κB-mediated integrin αV expression. […]

[1] = molecular target: T2, associations of CD91 with HSP90α and IKKα (Homo sapiens, UniProt P07900); experiment: Proximity ligation assay (PLA) in PANC-1 cells; format: cell-based; details: 15 μg/ml rHSP90α, 10 μg/ml antibody
T2 construct: recombinant 732-amino acid (a.a.) full-length human HSP90α (rHSP90α; PeproTech Co., Cranbury, NJ, USA); purchased PeproTech Co., Cranbury, NJ, USA; host or cells: PANC-1 cells (CD91 and IKKα endogenous)
Protocol: PANC-1 cells seeded onto glass coverslips at a density of 2×10^5 cells per 22×22-mm coverslip were incubated 16 h with 0.5% serum-containing medium at 37° C. plus a 5% CO2 humidified atmosphere. The cells were then added with PBS or 15 μg/ml of rHSP90α in the absence or presence of 10 μg/ml of control IgG or the tested anti-HSP90α antibody for another 24-h incubation. The treated cells were then fixed with 3% paraformaldehyde and blocked with the blocking solution provided in the Duolink in situ PLA kit (Olink Bioscience, Uppsala, Sweden). Furthermore, the cell samples were incubated overnight at 4° C. with anti-CD91 antibody (1:80, cat. #550495, BD Biosciences, San Jose, CA, USA) mixed with anti-HSP90α antibody (1:80, cat. #AHP-1339, AbD Serotec, Raleigh, NC, USA) or anti-IKKα antibody (1:80, cat. #3285, Epitomics Co., Burlingame, CA, USA). After washed trice with Tris-buffered saline plus 0.05% Tween 20, the cell samples were incubated with PLA probes for the subsequent ligation and amplification procedure according to the manufacturer's instructions for the Duolink in situ PLA kit. Finally, nuclei were counterstained with 4′,6′-diamidino-2-phenylindole (DAPI; Sigma-Aldrich). Images were photographed and analyzed using Leica TCS SP5 II confocal microscope and LAS AF Lite 4.0 software (Leica, Wetzlar, Germany).

SW620 and PANC-1 cells = experiment: Transwell invasion assay, rHSP90α-induced cancer cell invasion; format: cell-based, human; details: SW620 and PANC-1, 15 μg/ml rHSP90α plus 10 μg/ml antibody
Protocol: (§1) In a 37° C. and 5% CO2 humidified incubator, cancer cells were subjected to serum starvation in 0.5% FBS-containing medium for 16 h, and then added with PBS or 15 μg/ml of rHSP90α in the absence or presence of 10 μg/ml of control IgG or the tested anti-HSP90α antibody. After another 24 h, the treated cells were harvested as aliquots (1×10^5 cells per aliquot) in 0.5% FBS-containing culture medium, and then each aliquot was seeded into a top chamber of Transwell inserts pre-coated with 5-fold diluted Matrigel (BD Biosciences). Cells were allowed 16 h to invade through the Matrigel toward the bottom chambers containing culture medium plus 10% FBS. The filters of the Transwell inserts were then fixed and stained with Giemsa. Invasive cells on the lower side of filters were photographed using the Axiovert S100/AxioCam HR microscope system (Carl Zeiss, Oberkochen, Germany) and further quantified by the Image-Pro Plus software (Media Cybernetics, Inc., Silver Spring, MD, USA).

[2] = test system: SW620, PANC-1, and Panc 02 cells; experiment: Cell spheroid-forming assay, rHSP90α-induced gain-of-stemness; format: cell-based, human and mouse; details: SW620, PANC-1, Panc 02; 15 μg/ml rHSP90α plus 10 μg/ml antibody
Protocol: One thousand cancer cells were seeded onto each well of 24-well plates pre-coated with a 4-mm thick layer of 0.5% agarose. After incubation 24 h with serum-free medium at 37° C. plus a 5% CO2 humidified atmosphere, cells were added with PBS or 15 μg/ml of rHSP90α in the absence or presence of 10 μg/ml of control IgG or the tested anti-HSP90α antibody. The incubation was kept for 10-14 days with supplements of some fresh serum-free medium every 3 days. Finally, the cell spheroids characterized by tight, non-adherent, and >100 μm in diameter were photographed and counted under an Olympus IX 71 inverted microscope (Center Valley, PA, USA). The spheroid formation % was calculated by the formula: (number of cell spheroids/1000)×100%.

HSP90α = molecular target: T3, HSP90α (Homo sapiens, UniProt P07900); experiment: Epitope determination by ELISA (domain, peptide and alanine scanning); format: binding; details: full-length and truncated HSP90α
T3 construct: The full-length HSP90α (a.a. 1-732) and its 3 truncated fragments; 8×His; made in house; host or cells: Escherichia coli ClearColi, pET-23a
Source text: The full-length HSP90α (a.a. 1-732) and its 3 truncated fragments including the N-terminal plus Linker domains (a.a. 1-272), N terminus through Middle domain (a.a. 1-629), and C-terminal domain (a.a. 630-732) were cloned, expressed, and purified. Briefly, each cDNA sequence with a 8×His-tag was amplified by PCR from the human ORF Clone (NM_005348) with the primers containing Xho I and BamH I sites. The PCR products were purified, digested with restriction enzymes, and then inserted into pET-23a plasmid (Sigma-Aldrich). The recombinant plasmids were then transformed into Escherichia coli ClearColi® competent cells (Lucigen Co., Middleton, WI, USA), and expressions of the recombinant constructs were stimulated by the addition of isopropyl-D-thiogalacto-pyranoside. The expressed histidine-tagged full-length and truncated HSP90α were further purified by using the Ni—NTA column (Qiagen, Germantown, MD, USA) according to the manufacturer's instructions. The purified proteins were finally dialyzed against the storage buffer consisting of 25 mM Tris-HCl (pH, 7.0), 50 mM NaCl, 0.1% Triton X-100, 50% glycerol, 1 mM EDTA, and 1 mM DTT, and protein concentrations were determined by the Bradford protein assay (Bio-Rad Laboratories, Hercules, USA).
At first, the domain scanning strategy was used to roughly delineate the HSP90α region responsible for the binding with our prepared antibodies. […]

PANC-1 cells = experiment: Transwell invasion assay, rHSP90α-induced PANC-1 invasion; format: cell-based, human; details: 15 μg/ml rHSP90α plus 10 μg/ml antibody
Protocol: as §1, with “with PBS or 15 μg/ml of rHSP90α in the absence or presence of 10 μg/ml of control IgG or the tested anti-HSP90α antibody.” left out

Molecule | HSP90α-binding levels (ELISA) (rHSP90α) | blocking of the binding of eHSP90α with its cell-surface receptor CD91 [1] | blocking of the downstream association of CD91 with IKKα [1] | rHSP90α-induced cancer cell invasion (SW620 and PANC-1 cells) | rHSP90α-induced spheroid-forming ability (gain-of-stemness) [2] | HSP90α region bound (domain scanning) (HSP90α) | suppression of rHSP90α-induced invasiveness of PANC-1 cells (PANC-1 cells)
B1 | top two HSP90α-binding levels | efficiently blocked | efficiently blocked | drastically abolished | significantly inhibited | bound to the a.a. 1-272 region as well as the full-length protein | 
B2 |  |  |  |  |  |  | superior to Clone-2-hB, Clone-2-hC, and their parental Clone-2
